Results: US20170253656A1 (SUTRO BIOPHARMA, published 2017)

T1: hu-CD74 antigen (R&D SYSTEMS catalog #3590-CD-050) (human, UniProt P04233-2 73-232, limits assumed)
T1 construct: Bought antigen; also called rhCD74; human CD74
T1 sequence (looked up): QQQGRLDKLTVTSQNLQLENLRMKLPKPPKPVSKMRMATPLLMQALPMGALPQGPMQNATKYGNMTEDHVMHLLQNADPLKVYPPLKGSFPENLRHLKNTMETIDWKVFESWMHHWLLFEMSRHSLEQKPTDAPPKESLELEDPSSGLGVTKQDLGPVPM


target: T1, hu-CD74 antigen (R&D SYSTEMS catalog …); test: SPR (Biacore T200), IgG captured on anti-human Fc, rhCD74 analyte
Description: Kinetic binding experiments were performed at 25° C. using 1×HBS-EP+buffer. Kinetic data was collected by injecting test and control antibodies at concentrations of 10, 5 and 2.5 μg/mL for 12 s at a flow rate of 10 μl/min on flow cells 2, 3 and 4 respectively, followed by a buffer wash for 30 s at the same flow rate. Kinetic characterization of antibody samples was carried out with 8 concentrations of a 1:2 dilution series of rhCD74 antigen (R&D Systems) and 2 injections of 0 nM antigen (buffer only). […] Between each ligand capture and analyte binding cycle, regeneration was carried out using 2 injections of 3M MgCl₂ for 30 seconds at 30 μL/min, followed by a 30 second buffer wash step.

Kd	koff	kon	Binder
0.168 nM	0.0001 s⁻¹	598000 M⁻¹ s⁻¹	HC 1251_A06 (wt)/LC 1337_A07 (wt) (antibody, human IgG1, kappa, V domains shown, IgG format) VH: QVQLVESGGGVVQPGRSLRLSCAASGFDFSSYGMHWVRQAPDKGLEWVAVIWDDGSDRYYADSVKGRFTISRDNSKNTLYLQMNSLRAEDTAVYYCARGGTRVLGAIHGTDVWGQGTTVTVSS VL: DIQMTQSPSSLSASVGDRVTITCRASQGISSWVAWYQQKPEKAPKSLIYGASRLQSGVPSRFSGSGSGTDFTLTISSLQPEDFATYYCQQYHTYPLTFGGGTKVEIKR
0.166 nM	9.4e-05 s⁻¹	568000 M⁻¹ s⁻¹	HC 1251_A06 (g)/LC 1337_A07 (wt) (antibody, human IgG1, kappa, V domains shown, IgG format) VH: QVQLVESGGGVVQPGRSLRLSCAASGFDFSSYGMHWVRQAPGKGLEWVAVIWDDGSDRYYADSVKGRFTISRDNSKNTLYLQMNSLRAEDTAVYYCARGGTRVLGAIHGTDVWGQGTTVTVSS VL: DIQMTQSPSSLSASVGDRVTITCRASQGISSWVAWYQQKPEKAPKSLIYGASRLQSGVPSRFSGSGSGTDFTLTISSLQPEDFATYYCQQYHTYPLTFGGGTKVEIKR
0.245 nM	0.00016 s⁻¹	654000 M⁻¹ s⁻¹	HC 1251_A06 (wt)/LC 1275_C10 (wt) (antibody, human IgG1, kappa, IgG format) heavy: not shown light: MDIQMTQSPSSLSASVGDRVTITCRASQGVSSWLAWYQQKPEKAPKSLIYSARYLQSGVPSRFSGSGSGTDFTLTISSLQPEDFATYYCQQYNLYPLTFGGGTKVEIKRTVAAPSVFIFPPSDEQLKSGTASVVCLLNNFYPREAKVQWKVDNALQSGNSQESVTEQDSKDSTYSLSSTLTLSKADYEKHKVYACEVTHQGLSSPVTKSFNRGEC
0.411 nM	0.000235 s⁻¹	571000 M⁻¹ s⁻¹	HC 1251_A06 (wt)/LC 1337_A10 (g) (antibody, human IgG1, kappa, V domains shown, IgG format) VH: QVQLVESGGGVVQPGRSLRLSCAASGFDFSSYGMHWVRQAPDKGLEWVAVIWDDGSDRYYADSVKGRFTISRDNSKNTLYLQMNSLRAEDTAVYYCARGGTRVLGAIHGTDVWGQGTTVTVSS VL: DIQMTQSPSSVSASVGDRVTITCRASQGISSWVAWYQQKPGKAPKLLIYGSSRLQSGVPSRFSGSGSGTDFTLTISSLQPEDFATYYCQQYNTYPLTFGGGTKVEIKR
0.389 nM	0.000148 s⁻¹	380000 M⁻¹ s⁻¹	HC 1251_A06 (g)/LC 1337_A10 (g) (antibody, human IgG1, kappa, V domains shown, IgG format) VH: QVQLVESGGGVVQPGRSLRLSCAASGFDFSSYGMHWVRQAPGKGLEWVAVIWDDGSDRYYADSVKGRFTISRDNSKNTLYLQMNSLRAEDTAVYYCARGGTRVLGAIHGTDVWGQGTTVTVSS VL: DIQMTQSPSSVSASVGDRVTITCRASQGISSWVAWYQQKPGKAPKLLIYGSSRLQSGVPSRFSGSGSGTDFTLTISSLQPEDFATYYCQQYNTYPLTFGGGTKVEIKR
0.189 nM	8.63e-05 s⁻¹	457000 M⁻¹ s⁻¹	HC 1251_A06 (g)/LC 1337_A09 (wt) (antibody, human IgG1, kappa, V domains shown, IgG format) VH: QVQLVESGGGVVQPGRSLRLSCAASGFDFSSYGMHWVRQAPGKGLEWVAVIWDDGSDRYYADSVKGRFTISRDNSKNTLYLQMNSLRAEDTAVYYCARGGTRVLGAIHGTDVWGQGTTVTVSS VL: DIQMTQSPSSLSASVGDRVTITCRASQGIGSWLAWYQQKPEKAPKSLIYAADRLQSGVPSRFSGSGSGTDFTLTISSLQPEDFATYYCQQYHTYPLTFGGGTKVEIKR
0.209 nM	0.000148 s⁻¹	705000 M⁻¹ s⁻¹	HC 1251_A06 (g)/LC 1275_C10 (g) (antibody, human IgG1, kappa, V domains shown, IgG format) VH: QVQLVESGGGVVQPGRSLRLSCAASGFDFSSYGMHWVRQAPGKGLEWVAVIWDDGSDRYYADSVKGRFTISRDNSKNTLYLQMNSLRAEDTAVYYCARGGTRVLGAIHGTDVWGQGTTVTVSS VL: DIQMTQSPSSVSASVGDRVTITCRASQGVSSWLAWYQQKPGKAPKLLIYSARYLQSGVPSRFSGSGSGTDFTLTISSLQPEDFATYYCQQYNLYPLTFGGGTKVEIKR
0.18 nM	0.00011 s⁻¹	610000 M⁻¹ s⁻¹	HC 1251_A06 (wt)/LC 1337_A09 (g) (antibody, human IgG1, kappa, V domains shown, IgG format) VH: QVQLVESGGGVVQPGRSLRLSCAASGFDFSSYGMHWVRQAPDKGLEWVAVIWDDGSDRYYADSVKGRFTISRDNSKNTLYLQMNSLRAEDTAVYYCARGGTRVLGAIHGTDVWGQGTTVTVSS VL: DIQMTQSPSSVSASVGDRVTITCRASQGIGSWLAWYQQKPGKAPKLLIYAADRLQSGVPSRFSGSGSGTDFTLTISSLQPEDFATYYCQQYHTYPLTFGGGTKVEIKR
0.205 nM	0.000174 s⁻¹	847000 M⁻¹ s⁻¹	HC 1251_A06 (wt)/LC 1337_A10 (wt) (antibody, human IgG1, kappa, V domains shown, IgG format) VH: QVQLVESGGGVVQPGRSLRLSCAASGFDFSSYGMHWVRQAPDKGLEWVAVIWDDGSDRYYADSVKGRFTISRDNSKNTLYLQMNSLRAEDTAVYYCARGGTRVLGAIHGTDVWGQGTTVTVSS VL: DIQMTQSPSSLSASVGDRVTITCRASQGISSWVAWYQQKPEKAPKSLIYGSSRLQSGVPSRFSGSGSGTDFTLTISSLQPEDFATYYCQQYNTYPLTFGGGTKVEIKR
0.188 nM	9.03e-05 s⁻¹	479000 M⁻¹ s⁻¹	HC 1251_A06 (g)/LC 1337_A10 (wt) (antibody, human IgG1, kappa, V domains shown, IgG format) VH: QVQLVESGGGVVQPGRSLRLSCAASGFDFSSYGMHWVRQAPGKGLEWVAVIWDDGSDRYYADSVKGRFTISRDNSKNTLYLQMNSLRAEDTAVYYCARGGTRVLGAIHGTDVWGQGTTVTVSS VL: DIQMTQSPSSLSASVGDRVTITCRASQGISSWVAWYQQKPEKAPKSLIYGSSRLQSGVPSRFSGSGSGTDFTLTISSLQPEDFATYYCQQYNTYPLTFGGGTKVEIKR
0.168 nM	7.1e-05 s⁻¹	424000 M⁻¹ s⁻¹	HC 1251_A06 (g)/LC 1337_A07 (g) (antibody, human IgG1, kappa, V domains shown, IgG format) VH: QVQLVESGGGVVQPGRSLRLSCAASGFDFSSYGMHWVRQAPGKGLEWVAVIWDDGSDRYYADSVKGRFTISRDNSKNTLYLQMNSLRAEDTAVYYCARGGTRVLGAIHGTDVWGQGTTVTVSS VL: DIQMTQSPSSVSASVGDRVTITCRASQGISSWVAWYQQKPGKAPKLLIYGASRLQSGVPSRFSGSGSGTDFTLTISSLQPEDFATYYCQQYHTYPLTFGGGTKVEIKR
0.341 nM	0.000177 s⁻¹	520000 M⁻¹ s⁻¹	HC 1251_A06 (g)/LC 1275_C10 (wt) (antibody, human IgG1, kappa, V domains shown, IgG format) VH: QVQLVESGGGVVQPGRSLRLSCAASGFDFSSYGMHWVRQAPGKGLEWVAVIWDDGSDRYYADSVKGRFTISRDNSKNTLYLQMNSLRAEDTAVYYCARGGTRVLGAIHGTDVWGQGTTVTVSS VL: DIQMTQSPSSLSASVGDRVTITCRASQGVSSWLAWYQQKPEKAPKSLIYSARYLQSGVPSRFSGSGSGTDFTLTISSLQPEDFATYYCQQYNLYPLTFGGGTKVEIKR
0.156 nM	9.19e-05 s⁻¹	588000 M⁻¹ s⁻¹	HC 1251_A06 (wt)/LC 1337_A09 (wt) (antibody, human IgG1, kappa, V domains shown, IgG format) VH: QVQLVESGGGVVQPGRSLRLSCAASGFDFSSYGMHWVRQAPDKGLEWVAVIWDDGSDRYYADSVKGRFTISRDNSKNTLYLQMNSLRAEDTAVYYCARGGTRVLGAIHGTDVWGQGTTVTVSS VL: DIQMTQSPSSLSASVGDRVTITCRASQGIGSWLAWYQQKPEKAPKSLIYAADRLQSGVPSRFSGSGSGTDFTLTISSLQPEDFATYYCQQYHTYPLTFGGGTKVEIKR
0.385 nM	0.00012 s⁻¹	312000 M⁻¹ s⁻¹	HC 1251_B08 (g)/LC 1337_A10 (wt) (antibody, human IgG1, kappa, V domains shown, IgG format) VH: QVQLVESGGGVVQPGRSLRLSCAASGFNFSDYGMHWVRQAPGKGLEWVAVIWYDGSISYYADSVKGRFTISRDNSKNTLYLQMNSLRAEDTAVYYCARGGTVEHGAVYGTDVWGQGTTVTVSS VL: DIQMTQSPSSLSASVGDRVTITCRASQGISSWVAWYQQKPEKAPKSLIYGSSRLQSGVPSRFSGSGSGTDFTLTISSLQPEDFATYYCQQYNTYPLTFGGGTKVEIKR
0.348 nM	0.000166 s⁻¹	478000 M⁻¹ s⁻¹	HC 1251_A06 (wt)/LC 1275_C10 (g) (antibody, human IgG1, kappa, V domains shown, IgG format) VH: QVQLVESGGGVVQPGRSLRLSCAASGFDFSSYGMHWVRQAPDKGLEWVAVIWDDGSDRYYADSVKGRFTISRDNSKNTLYLQMNSLRAEDTAVYYCARGGTRVLGAIHGTDVWGQGTTVTVSS VL: DIQMTQSPSSVSASVGDRVTITCRASQGVSSWLAWYQQKPGKAPKLLIYSARYLQSGVPSRFSGSGSGTDFTLTISSLQPEDFATYYCQQYNLYPLTFGGGTKVEIKR
0.131 nM	7.26e-05 s⁻¹	552000 M⁻¹ s⁻¹	HC 1251_A06 (g)/LC 1337_A09 (g) (antibody, human IgG1, kappa, V domains shown, IgG format) VH: QVQLVESGGGVVQPGRSLRLSCAASGFDFSSYGMHWVRQAPGKGLEWVAVIWDDGSDRYYADSVKGRFTISRDNSKNTLYLQMNSLRAEDTAVYYCARGGTRVLGAIHGTDVWGQGTTVTVSS VL: DIQMTQSPSSVSASVGDRVTITCRASQGIGSWLAWYQQKPGKAPKLLIYAADRLQSGVPSRFSGSGSGTDFTLTISSLQPEDFATYYCQQYHTYPLTFGGGTKVEIKR
0.349 nM	9.23e-05 s⁻¹	265000 M⁻¹ s⁻¹	HC 1251_B08 (g)/LC 1337_A07 (wt) (antibody, human IgG1, kappa, V domains shown, IgG format) VH: QVQLVESGGGVVQPGRSLRLSCAASGFNFSDYGMHWVRQAPGKGLEWVAVIWYDGSISYYADSVKGRFTISRDNSKNTLYLQMNSLRAEDTAVYYCARGGTVEHGAVYGTDVWGQGTTVTVSS VL: DIQMTQSPSSLSASVGDRVTITCRASQGISSWVAWYQQKPEKAPKSLIYGASRLQSGVPSRFSGSGSGTDFTLTISSLQPEDFATYYCQQYHTYPLTFGGGTKVEIKR
0.205 nM	0.000136 s⁻¹	660000 M⁻¹ s⁻¹	HC 1251_A06 (wt)/LC 1337_A07 (g) (antibody, human IgG1, kappa, V domains shown, IgG format) VH: QVQLVESGGGVVQPGRSLRLSCAASGFDFSSYGMHWVRQAPDKGLEWVAVIWDDGSDRYYADSVKGRFTISRDNSKNTLYLQMNSLRAEDTAVYYCARGGTRVLGAIHGTDVWGQGTTVTVSS VL: DIQMTQSPSSVSASVGDRVTITCRASQGISSWVAWYQQKPGKAPKLLIYGASRLQSGVPSRFSGSGSGTDFTLTISSLQPEDFATYYCQQYHTYPLTFGGGTKVEIKR
